Test results published in publication PMC10933417.

T1: ZNF827 ZnFΔ1-3 (Homo sapiens, UniProt Q17R98 1-373+456-1081, internal_change)
T1 sequence: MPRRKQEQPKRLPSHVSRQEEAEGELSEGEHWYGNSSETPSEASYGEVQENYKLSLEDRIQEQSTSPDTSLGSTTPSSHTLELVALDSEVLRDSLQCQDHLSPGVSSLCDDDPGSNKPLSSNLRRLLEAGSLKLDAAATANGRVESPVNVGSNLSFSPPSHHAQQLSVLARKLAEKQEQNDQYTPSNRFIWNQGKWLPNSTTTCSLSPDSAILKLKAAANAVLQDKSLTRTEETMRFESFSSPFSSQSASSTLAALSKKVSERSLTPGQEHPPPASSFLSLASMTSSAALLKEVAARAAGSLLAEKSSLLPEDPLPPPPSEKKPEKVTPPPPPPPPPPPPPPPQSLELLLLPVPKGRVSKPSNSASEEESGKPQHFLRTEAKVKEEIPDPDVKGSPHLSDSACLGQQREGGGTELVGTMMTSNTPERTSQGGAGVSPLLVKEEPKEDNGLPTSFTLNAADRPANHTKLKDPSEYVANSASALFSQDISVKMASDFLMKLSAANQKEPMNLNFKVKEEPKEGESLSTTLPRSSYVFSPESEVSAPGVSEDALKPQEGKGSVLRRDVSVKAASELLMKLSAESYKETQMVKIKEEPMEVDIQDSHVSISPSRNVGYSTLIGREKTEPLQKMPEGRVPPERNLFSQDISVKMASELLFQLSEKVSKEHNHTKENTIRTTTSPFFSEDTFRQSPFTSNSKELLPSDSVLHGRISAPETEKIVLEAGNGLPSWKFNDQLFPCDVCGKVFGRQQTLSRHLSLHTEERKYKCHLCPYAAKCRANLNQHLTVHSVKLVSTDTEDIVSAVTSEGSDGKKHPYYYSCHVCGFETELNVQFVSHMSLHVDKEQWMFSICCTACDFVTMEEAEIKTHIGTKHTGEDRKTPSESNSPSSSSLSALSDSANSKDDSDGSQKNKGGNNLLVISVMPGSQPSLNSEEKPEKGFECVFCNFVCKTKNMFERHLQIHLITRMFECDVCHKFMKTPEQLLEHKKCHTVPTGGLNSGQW

T2: ZNF827 wild-type (Homo sapiens, UniProt Q17R98 1-1081)
T2 sequence: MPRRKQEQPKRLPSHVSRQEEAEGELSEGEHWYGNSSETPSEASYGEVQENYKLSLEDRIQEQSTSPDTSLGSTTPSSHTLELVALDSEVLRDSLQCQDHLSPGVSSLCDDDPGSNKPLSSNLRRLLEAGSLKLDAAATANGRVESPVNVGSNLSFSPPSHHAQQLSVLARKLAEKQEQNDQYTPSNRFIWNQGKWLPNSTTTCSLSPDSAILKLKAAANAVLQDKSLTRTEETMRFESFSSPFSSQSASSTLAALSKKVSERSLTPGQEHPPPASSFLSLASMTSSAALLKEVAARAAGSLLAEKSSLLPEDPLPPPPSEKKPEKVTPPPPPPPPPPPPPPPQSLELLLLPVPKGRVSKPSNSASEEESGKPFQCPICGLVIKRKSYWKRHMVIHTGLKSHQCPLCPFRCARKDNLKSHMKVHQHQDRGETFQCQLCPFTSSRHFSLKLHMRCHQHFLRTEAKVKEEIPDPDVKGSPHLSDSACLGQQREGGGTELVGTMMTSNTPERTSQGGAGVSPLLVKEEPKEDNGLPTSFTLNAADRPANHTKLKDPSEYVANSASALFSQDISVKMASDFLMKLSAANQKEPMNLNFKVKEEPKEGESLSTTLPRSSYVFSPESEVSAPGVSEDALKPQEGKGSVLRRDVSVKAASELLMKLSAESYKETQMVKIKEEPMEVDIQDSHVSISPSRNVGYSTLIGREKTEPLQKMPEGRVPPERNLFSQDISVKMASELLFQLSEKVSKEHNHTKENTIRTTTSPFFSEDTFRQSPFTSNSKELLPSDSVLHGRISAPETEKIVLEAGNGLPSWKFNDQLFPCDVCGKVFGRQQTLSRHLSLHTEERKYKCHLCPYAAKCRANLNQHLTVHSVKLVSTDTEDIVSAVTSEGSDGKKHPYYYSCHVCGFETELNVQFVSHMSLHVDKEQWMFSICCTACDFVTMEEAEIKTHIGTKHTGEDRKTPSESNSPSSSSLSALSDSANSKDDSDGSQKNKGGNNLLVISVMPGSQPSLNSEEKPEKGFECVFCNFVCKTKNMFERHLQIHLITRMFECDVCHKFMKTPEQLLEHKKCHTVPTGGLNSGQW

T3: ZNF827 ZnFΔ4-9 (Homo sapiens, UniProt Q17R98 1-816+1070-1081, internal_change)
T3 sequence: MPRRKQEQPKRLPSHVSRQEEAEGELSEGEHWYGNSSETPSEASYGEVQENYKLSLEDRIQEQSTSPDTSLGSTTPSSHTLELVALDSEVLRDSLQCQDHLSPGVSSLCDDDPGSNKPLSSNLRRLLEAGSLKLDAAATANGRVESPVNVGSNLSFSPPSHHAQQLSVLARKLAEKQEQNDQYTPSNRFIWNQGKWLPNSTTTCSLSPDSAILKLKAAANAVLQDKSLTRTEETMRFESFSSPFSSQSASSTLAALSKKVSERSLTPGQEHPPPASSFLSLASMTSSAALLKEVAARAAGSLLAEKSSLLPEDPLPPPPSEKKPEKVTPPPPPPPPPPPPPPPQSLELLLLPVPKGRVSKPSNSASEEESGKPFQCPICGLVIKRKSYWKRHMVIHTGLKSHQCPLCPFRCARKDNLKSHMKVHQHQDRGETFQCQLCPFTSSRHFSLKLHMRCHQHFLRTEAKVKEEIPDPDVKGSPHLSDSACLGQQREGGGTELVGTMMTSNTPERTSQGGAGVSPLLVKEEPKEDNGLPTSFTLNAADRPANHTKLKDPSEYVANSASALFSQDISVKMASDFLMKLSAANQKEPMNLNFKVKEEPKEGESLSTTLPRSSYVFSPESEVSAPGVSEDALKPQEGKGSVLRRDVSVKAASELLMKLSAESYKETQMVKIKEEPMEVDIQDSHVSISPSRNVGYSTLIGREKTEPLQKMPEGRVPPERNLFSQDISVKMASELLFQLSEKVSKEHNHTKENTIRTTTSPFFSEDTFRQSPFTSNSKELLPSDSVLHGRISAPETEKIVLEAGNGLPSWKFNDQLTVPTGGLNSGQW

B1: ssDNA pentaprobe (ssDNA)
DNA: CGCTCTATTCTACTGTCCTGTGCATTCAATCGTTGAGTTCGATCTAGTCTCGTCTAACCCTCCCCTGCTCCGCTGGTCTGGCCTCGCCTATCCTACCCAT
B2: dsDNA pentaprobe (dsDNA)
DNA 1: CGCTCTATTCTACTGTCCTGTGCATTCAATCGTTGAGTTCGATCTAGTCTCGTCTAACCCTCCCCTGCTCCGCTGGTCTGGCCTCGCCTATCCTACCCAT
DNA 2: ATGGGTAGGATAGGCGAGGCCAGACCAGCGGAGCAGGGGAGGGTTAGACGAGACTAGATCGAACTCAACGATTGAATGCACAGGACAGTAGAATAGAGCG

Assays:
[1] = molecular target: ZNF827 wild-type;RPA heterotrimer (Homo sapiens;Homo sapiens?, UniProt Q17R98;P27694;P15927;P35244 1-1081;1-616;1-270;1-121, |); assay: EMSA; 0.8 mM ZnCl2; intermediate band only with both proteins; RPA partly displaces ZNF827; 20 mM HEPES-KOH pH 7.9, 100 mM KCl, 0.8 mM ZnCl2, 0.2 mM EDTA, 5% glycerol, 0.5 mM DTT, 0.5 mM PMSF, 6.25 ug/mL poly(dI:dC), 50 ng/uL BSA, ~0.5 nM probe, on ice; gel at 4 °C; conditions: protein: recombinant;recombinant; tags: HaloTag removed by TEV cleavage;; copies: 1;1;1;1; label: 32P (T4 PNK end label)
Chain of ZNF827 wild-type;RPA heterotrimer (P27694 whole entry, chain 2 of 3): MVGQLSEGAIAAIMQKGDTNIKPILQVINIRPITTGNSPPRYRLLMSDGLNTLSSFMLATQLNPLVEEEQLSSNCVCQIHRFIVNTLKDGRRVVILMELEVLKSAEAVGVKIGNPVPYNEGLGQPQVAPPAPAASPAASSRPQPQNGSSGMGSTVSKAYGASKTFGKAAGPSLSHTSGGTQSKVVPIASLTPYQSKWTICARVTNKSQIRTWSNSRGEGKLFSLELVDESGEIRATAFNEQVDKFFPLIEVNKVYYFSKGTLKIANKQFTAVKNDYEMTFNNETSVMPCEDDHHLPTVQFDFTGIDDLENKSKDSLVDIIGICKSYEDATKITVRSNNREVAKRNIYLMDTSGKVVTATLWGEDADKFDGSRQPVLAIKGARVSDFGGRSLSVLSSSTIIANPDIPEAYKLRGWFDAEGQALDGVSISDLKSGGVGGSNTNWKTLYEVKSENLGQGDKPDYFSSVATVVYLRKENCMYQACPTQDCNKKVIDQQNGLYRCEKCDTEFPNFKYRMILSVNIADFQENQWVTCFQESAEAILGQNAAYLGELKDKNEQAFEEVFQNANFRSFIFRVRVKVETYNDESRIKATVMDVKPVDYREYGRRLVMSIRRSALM
Chain of ZNF827 wild-type;RPA heterotrimer (P15927 whole entry, chain 3 of 3): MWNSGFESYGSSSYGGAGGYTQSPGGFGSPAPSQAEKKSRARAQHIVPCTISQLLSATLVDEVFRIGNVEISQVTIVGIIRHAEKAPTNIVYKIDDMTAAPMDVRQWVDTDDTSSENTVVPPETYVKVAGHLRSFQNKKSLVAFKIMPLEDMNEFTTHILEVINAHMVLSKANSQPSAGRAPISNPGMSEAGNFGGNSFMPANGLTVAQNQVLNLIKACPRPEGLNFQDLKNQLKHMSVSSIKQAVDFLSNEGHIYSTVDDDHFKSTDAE
Chain of ZNF827 wild-type;RPA heterotrimer (P35244 whole entry, chain 4 of 3): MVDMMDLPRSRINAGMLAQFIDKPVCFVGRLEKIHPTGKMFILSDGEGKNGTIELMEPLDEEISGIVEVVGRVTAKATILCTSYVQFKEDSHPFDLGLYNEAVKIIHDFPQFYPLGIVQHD

[2] = molecular target: RPA heterotrimer (UniProt P27694;P15927;P35244 1-616;1-270;1-121); assay: EMSA; 0.8 mM ZnCl2; 20 mM HEPES-KOH pH 7.9, 100 mM KCl, 0.8 mM ZnCl2, 0.2 mM EDTA, 5% glycerol, 0.5 mM DTT, 0.5 mM PMSF, 6.25 ug/mL poly(dI:dC), 50 ng/uL BSA, ~0.5 nM probe, on ice; gel at 4 °C; conditions: protein: recombinant; copies: 1;1;1; label: 32P (T4 PNK end label)
Chain of RPA heterotrimer (P27694 whole entry, chain 1 of 3): as the sequence (P27694 whole entry, chain 2 of 3) above
Chain of RPA heterotrimer (P15927 whole entry, chain 2 of 3): as the sequence (P15927 whole entry, chain 3 of 3) above
Chain of RPA heterotrimer (P35244 whole entry, chain 3 of 3): as the sequence (P35244 whole entry, chain 4 of 3) above

[3] = molecular target: T1, ZNF827 ZnFΔ1-3; assay: as above; conditions: protein: recombinant, tags: HaloTag removed by TEV cleavage, label: 32P (T4 PNK end label)
[4] = molecular target: T2, ZNF827 wild-type; assay: as above; conditions: protein: recombinant, tags: HaloTag removed by TEV cleavage, label: 32P (T4 PNK end label)
[5] = molecular target: T3, ZNF827 ZnFΔ4-9; assay: as above; conditions: protein: recombinant; tags: HaloTag removed by TEV cleavage; label: 32P (T4 PNK end label); blunt

| Binder | binding result [1] | binding result [2] | binding result [3] | binding result [4] | binding result ([3]; blunt) | binding result [5] | binding result ([4]; blunt) |
| --- | --- | --- | --- | --- | --- | --- | --- |
| B1 | binds | binds | no binding | binds |  |  |  |
| B2 |  |  |  |  | no binding | no binding | no binding |
